Test results as given in patent EP4534554A1 (Corregene Biotechnology Co., Ltd., dated 2025).
Numbering of substitutions follows the chain as printed. Each block holds one binder with its values, some of them ahead of it.

Key:
[1] = biological target: MAGE-A1 target antigen peptide … presented by HLA-A*02:01 on cells (human); assay: cell-based or functional assay; parameters: EC50 Enhancement Factor: unit not given beside the values
[2] = biological target: T1, MAGE-A1 peptide on HLA-A*02:01 (human); assay: JKR9 reporter + peptide-loaded T2, 16 h; full-length, on cells
T1 peptide: KVLEYVIKV

B1: ht27M1004 (TCR, V domains shown)
Valpha: GEDVEQSLFLSVREGDSSVINCTYTDSSSTYLYWYKQEPGAGLQLLTYIFSNMDMKQDQRLTVLLNKKDKHLSLRIADTQTGDSAIYFCAGSGGGTDKLIFGTGTRLQVFP
Vbeta: GAVVSQHPSWVICKSGTSVKIECRSLDFQATTMFWYRQFPKQSLMLMATSNEGSKATYEQGVEKDKFLINHASLTLSTLTVTSAHPEDSSFYICSAREPGQGPFEQYFGPGTRLTVT
EC50 Enhancement Factor [1]: 944
EC50 Value (M), JKR9 reporter activation by peptide-loaded T2 cells [1]: 1.76e-08 M
EC50 of peptide [2]: 17.6 nM

B2: ht27M1009 (TCR, V domains shown)
Valpha: B1 Valpha
Vbeta: B1 Vbeta with N51D, E52Y, G53Q, S54T, K55C, A56V
EC50 Enhancement Factor [1]: 2720
EC50 Value (M), JKR9 reporter activation by peptide-loaded T2 cells [1]: 6.12e-09 M
EC50 of peptide [2]: 6.12 nM

B4: ht27M1457 (TCR, V domains shown)
Valpha: B1 Valpha
Vbeta: B1 Vbeta with S50T, N51D, E52Y, F104Y
EC50 Enhancement Factor [1]: 352
EC50 Value (M), JKR9 reporter activation by peptide-loaded T2 cells [1]: 4.73e-08 M
EC50 of peptide [2]: 47.3 nM

B5: ht27M1006 (TCR, V domains shown)
Valpha: B1 Valpha
Vbeta: B1 Vbeta with F104W
EC50 Enhancement Factor [1]: 445
EC50 Value (M), JKR9 reporter activation by peptide-loaded T2 cells [1]: 3.74e-08 M
EC50 of peptide [2]: 37.4 nM

B8: ht27M1166 (TCR, V domains shown)
Valpha: B1 Valpha
Vbeta: B1 Vbeta with S95Q, F104Y
EC50 Enhancement Factor [1]: 47
EC50 Value (M), JKR9 reporter activation by peptide-loaded T2 cells [1]: 3.55e-07 M
EC50 of peptide [2]: 355 nM

B12: ht27M1018 (TCR, V domains shown)
Valpha: B1 Valpha
Vbeta: B1 Vbeta with N51D, E52Y, G53Q, S54T, K55C, A56V, Q101G
EC50 Enhancement Factor [1]: 262
EC50 Value (M), JKR9 reporter activation by peptide-loaded T2 cells [1]: 6.36e-08 M
EC50 of peptide [2]: 63.6 nM

B17: ht27M1360 (TCR, V domains shown)
Valpha: B1 Valpha with S51G, N52F, M53D, D54T
Vbeta: B1 Vbeta with F104Y
EC50 Enhancement Factor [1]: 277
EC50 Value (M), JKR9 reporter activation by peptide-loaded T2 cells [1]: 6.04e-08 M
EC50 of peptide [2]: 60.4 nM

B18: ht27M1019 (TCR, V domains shown)
Valpha: B1 Valpha
Vbeta: B1 Vbeta with N51D, E52Y, G53Q, S54T, K55C, A56V, Q101S
EC50 Enhancement Factor [1]: 751
EC50 Value (M), JKR9 reporter activation by peptide-loaded T2 cells [1]: 2.21e-08 M
EC50 of peptide [2]: 22.1 nM

B20: ht27M1557 (TCR, V domains shown)
Valpha: B1 Valpha
Vbeta: B1 Vbeta with G102E, P103H, F104L, E105I
EC50 Enhancement Factor [1]: 1120
EC50 Value (M), JKR9 reporter activation by peptide-loaded T2 cells [1]: 1.49e-08 M
EC50 of peptide [2]: 14.9 nM

B22: ht27M1398 (TCR, V domains shown)
Valpha: B1 Valpha
Vbeta: B1 Vbeta with S50T, E52L, G53P, F104Y
EC50 Enhancement Factor [1]: 316
EC50 Value (M), JKR9 reporter activation by peptide-loaded T2 cells [1]: 5.28e-08 M
EC50 of peptide [2]: 52.8 nM

B23: ht27M1012 (TCR, V domains shown)
Valpha: B1 Valpha
Vbeta: B1 Vbeta with Q101G
EC50 Enhancement Factor [1]: 637
EC50 Value (M), JKR9 reporter activation by peptide-loaded T2 cells [1]: 2.61e-08 M
EC50 of peptide [2]: 26.1 nM

B24: ht27M1170 (TCR, V domains shown)
Valpha: B1 Valpha
Vbeta: B1 Vbeta with S95H, F104Y
EC50 Enhancement Factor [1]: 39
EC50 Value (M), JKR9 reporter activation by peptide-loaded T2 cells [1]: 4.25e-07 M
EC50 of peptide [2]: 425 nM

B26: ht27M1378 (TCR, V domains shown)
Valpha: B1 Valpha with T25A, S27Y, S28L
Vbeta: B1 Vbeta with F104Y
EC50 Enhancement Factor [1]: 225
EC50 Value (M), JKR9 reporter activation by peptide-loaded T2 cells [1]: 7.4e-08 M
EC50 of peptide [2]: 74 nM

B29: ht27M1010 (TCR, V domains shown)
Valpha: B1 Valpha
Vbeta: B1 Vbeta with N51D, E52Y, G53Q, S54T, K55C, A56V, F104L
EC50 Enhancement Factor [1]: 820
EC50 Value (M), JKR9 reporter activation by peptide-loaded T2 cells [1]: 2.03e-08 M
EC50 of peptide [2]: 20.3 nM

B32: ht27M1290 (TCR, V domains shown)
Valpha: B1 Valpha
Vbeta: GAVVSQHPSWVICKSGTSVKIECRSLDFQATTMFWYRQFPKQSLMLMATSNEGSKATYEQGVEKDKFLINHASLTLSTLTVTSAHPEDSSFYICSARVNDGTYEQYFGPGTRLTVT
EC50 Enhancement Factor [1]: 711
EC50 Value (M), JKR9 reporter activation by peptide-loaded T2 cells [1]: 3.24e-08 M
EC50 of peptide [2]: 32.4 nM

Second part, the binder after the results:

EC50 Enhancement Factor [1]: 739
EC50 Value (M), JKR9 reporter activation by peptide-loaded T2 cells [1]: 2.25e-08 M
EC50 of peptide [2]: 22.5 nM
B3: ht27M1414 (TCR, V domains shown)
Valpha: B1 Valpha with I49T, F50W, S51P, N52H
Vbeta: B1 Vbeta with F104Y

EC50 Enhancement Factor [1]: 12
EC50 Value (M), JKR9 reporter activation by peptide-loaded T2 cells [1]: 1.36e-06 M
EC50 of peptide [2]: 1360 nM
B6: ht27M1002 (TCR, V domains shown)
Valpha: B1 Valpha
Vbeta: B1 Vbeta with Q101G, F104Y

EC50 Enhancement Factor [1]: 388
EC50 Value (M), JKR9 reporter activation by peptide-loaded T2 cells [1]: 4.28e-08 M
EC50 of peptide [2]: 42.8 nM
B7: ht27M1001 (TCR, V domains shown)
Valpha: B1 Valpha
Vbeta: B1 Vbeta with N51D, E52Y, G53Q, S54T, K55C, A56V, F104Y

EC50 Enhancement Factor [1]: 2020
EC50 Value (M), JKR9 reporter activation by peptide-loaded T2 cells [1]: 8.24e-09 M
EC50 of peptide [2]: 8.24 nM
B9: ht27M1011 (TCR, V domains shown)
Valpha: B1 Valpha
Vbeta: B1 Vbeta with N51D, E52Y, G53Q, S54T, K55C, A56V, F104W

EC50 Enhancement Factor [1]: 11
EC50 Value (M), JKR9 reporter activation by peptide-loaded T2 cells [1]: 1.55e-06 M
EC50 of peptide [2]: 1550 nM
B10: ht27M1005 (TCR, V domains shown)
Valpha: B1 Valpha
Vbeta: B1 Vbeta with F104L

EC50 Enhancement Factor [1]: 184
EC50 Value (M), JKR9 reporter activation by peptide-loaded T2 cells [1]: 9.05e-08 M
EC50 of peptide [2]: 90.5 nM
B11: ht27M1401 (TCR, V domains shown)
Valpha: B1 Valpha
Vbeta: B1 Vbeta with S50T, N51Q, E52P, G53L, F104Y

EC50 Enhancement Factor [1]: 28
EC50 Value (M), JKR9 reporter activation by peptide-loaded T2 cells [1]: 5.88e-07 M
EC50 of peptide [2]: 588 nM
B13: ht27M1226 (TCR, V domains shown)
Valpha: B1 Valpha with S28L
Vbeta: B1 Vbeta with F104Y

EC50 Enhancement Factor [1]: 422
EC50 Value (M), JKR9 reporter activation by peptide-loaded T2 cells [1]: 3.95e-08 M
EC50 of peptide [2]: 39.5 nM
B14: ht27M1128 (TCR, V domains shown)
Valpha: B1 Valpha
Vbeta: B1 Vbeta with S95L, F104Y

EC50 Enhancement Factor [1]: 218
EC50 Value (M), JKR9 reporter activation by peptide-loaded T2 cells [1]: 7.66e-08 M
EC50 of peptide [2]: 76.6 nM
B15: ht27M1369 (TCR, V domains shown)
Valpha: B1 Valpha with S51A, N52F, M53E, D54S
Vbeta: B1 Vbeta with F104Y

EC50 Enhancement Factor [1]: 841
EC50 Value (M), JKR9 reporter activation by peptide-loaded T2 cells [1]: 1.98e-08 M
EC50 of peptide [2]: 19.8 nM
B16: ht27M1013 (TCR, V domains shown)
Valpha: B1 Valpha
Vbeta: B1 Vbeta with Q101S

EC50 Enhancement Factor [1]: 131
EC50 Value (M), JKR9 reporter activation by peptide-loaded T2 cells [1]: 1.28e-07 M
EC50 of peptide [2]: 128 nM
B19: ht27M1381 (TCR, V domains shown)
Valpha: B1 Valpha with T25V, S27P, S28Y
Vbeta: B1 Vbeta with F104Y

EC50 Enhancement Factor [1]: 151
EC50 Value (M), JKR9 reporter activation by peptide-loaded T2 cells [1]: 1.1e-07 M
EC50 of peptide [2]: 110 nM
B21: ht27M1240 (TCR, V domains shown)
Valpha: B1 Valpha with S29M
Vbeta: B1 Vbeta with F104Y

EC50 Enhancement Factor [1]: 131
EC50 Value (M), JKR9 reporter activation by peptide-loaded T2 cells [1]: 1.28e-07 M
EC50 of peptide [2]: 128 nM
B25: ht27M1387 (TCR, V domains shown)
Valpha: B1 Valpha
Vbeta: B1 Vbeta with Q29P, A30I, T31E, T32R, F104Y

EC50 Enhancement Factor [1]: 30
EC50 Value (M), JKR9 reporter activation by peptide-loaded T2 cells [1]: 5.54e-07 M
EC50 of peptide [2]: 554 nM
B27: ht27M1245 (TCR, V domains shown)
Valpha: B1 Valpha with S29Q
Vbeta: B1 Vbeta with F104Y

EC50 Enhancement Factor [1]: 56
EC50 Value (M), JKR9 reporter activation by peptide-loaded T2 cells [1]: 2.98e-07 M
EC50 of peptide [2]: 298 nM
B28: ht27M1243 (TCR, V domains shown)
Valpha: B1 Valpha with S29L
Vbeta: B1 Vbeta with F104Y

EC50 Enhancement Factor [1]: 281
EC50 Value (M), JKR9 reporter activation by peptide-loaded T2 cells [1]: 5.93e-08 M
EC50 of peptide [2]: 59.3 nM
B30: ht27M1285 (TCR, V domains shown)
Valpha: B1 Valpha with N52F
Vbeta: B1 Vbeta with F104Y

EC50 Enhancement Factor [1]: 153
EC50 Value (M), JKR9 reporter activation by peptide-loaded T2 cells [1]: 1.09e-07 M
EC50 of peptide [2]: 109 nM
B31: ht27M1374 (TCR, V domains shown)
Valpha: B1 Valpha with S28T, S29D, T30I, Y31L
Vbeta: B1 Vbeta with F104Y
